T1: recombinant laminin LAMA3_(2928–3150) protein (human, UniProt Q16787 2928-3150)
T1 chain: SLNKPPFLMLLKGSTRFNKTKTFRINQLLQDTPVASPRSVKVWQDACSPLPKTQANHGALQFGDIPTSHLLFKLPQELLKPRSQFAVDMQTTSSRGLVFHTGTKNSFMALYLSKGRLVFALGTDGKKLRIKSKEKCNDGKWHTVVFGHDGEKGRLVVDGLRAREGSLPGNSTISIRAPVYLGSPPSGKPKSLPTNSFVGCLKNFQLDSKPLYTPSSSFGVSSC

B1: placental growth factor (PlGF)-2 (ligand)
chain: LPAVPPQQWALSAGNGSSEVEVVPFQEVWGRSYCRALERLVDVVSEYPSEVEHMFSPSCVSLLRCTGCCGDENLHCVPVETANVTMQLLKIRSGDRPSYVELTFSQHVRCECRPLREKMKPERRRPKGRGKRRREKQRPTDCHLCGDAVPRR
B2: vascular endothelial cell growth factor VEGF-A165 (ligand)
chain: APMAEGGGQNHHEVVKFMDVYQRSYCHPIETLVDIFQEYPDEIEYIFKPSCVPLMRCGGCCNDEGLECVPTEESNITMQIMRIKPHQGQHIGEMSFLQHNKCECRPKKDRARQENPCGPCSERRKHLFVQDPQTCKCSCKNTDSRCKARQLELNERTCRCDKPRR
B3: platelet-derived growth factor PDGF-BB (ligand)
chain: SLGSLTIAEPAMIAECKTRTEVFEISRRLIDRTNANFLVWPPCVEVQRCSGCCNNRNVQCRPTQVQLRPVQVRKIEIVRKKPIFKKATVTLEDHLACKCETVAAARPVT

Tests used:
Experiment in all cases: SPR
[1] = molecular target: recombinant human laminin-521 (human, UniProt O15230 36-3695; P55268 33-1798; P11047 34-1609)
[2] = molecular target: T1, recombinant laminin LAMA3_(2928–3150) …
[3] = molecular target: T1, recombinant laminin LAMA3_(2928–3150) …

Row | Binder | koff [1] | koff [2] | Kd [3]
1 | B1 | 0.0246 s⁻¹ | – | –
2 | B2 | 0.00324 s⁻¹ | 0.00663 s⁻¹ | 1.47 nM
3 | B3 | 0.00497 s⁻¹ | 0.0136 s⁻¹ | 12.1 nM

Source: article PMC5986797 (2018)
